Test results as given in patent US20210284750A1, “Immunoconjugate Synthesis Method” (priority 2017, published 2021).

Legend:
[1] = system: Human antigen presenting cells (APCs); experiment: APC-tumor co-culture: myeloid activation by flow cytometry; type: cell-based; conditions: 18 hours; for myeloid activation: APC-tumor co-culture
Text: (§1) Isolation of Human Antigen Presenting Cells. Human antigen presenting cells (APCs) were negatively selected from human peripheral blood mononuclear cells obtained from healthy blood donors (Stanford Blood Center) by density gradient centrifugation using a RosetteSep Human Monocyte Enrichment Cocktail (Stem Cell Technologies) containing monoclonal antibodies against CD14, CD16, CD40, CD86, CD123, and HLA-DR. Immature APCs were subsequently purified to >97% purity via negative selection using an EasySep Human Monocyte Enrichment Kit without CD16 depletion containing monoclonal antibodies against CD14, CD16, CD40, CD86, CD123, and HLA-DR.
(§2) Preparation of Tumor Cells. Tumor cells were resuspended in PBS with 0.1% fetal bovine serum (FBS) at 1 to 10×10^6 cells/mL. Cells were subsequently incubated with 2 μM CFSE to yield a final concentration of 1 μM. The reaction was ended after 2 minutes via the addition of 10 mL complete medium with 10% FBS and washed once with complete medium. Cells were either fixed in 2% paraformaldehyde and washed three times with PBS or left unfixed prior to freezing the cells in 10% DMSO, 20% FBS and 70% medium.
(§3) APC-Tumor Co-cultures. […] Cells and cell-free supernatants were analyzed after 18 hours via flow cytometry or ELISA.

[2] = system: Human antigen presenting cells (APCs); experiment: APC-tumor co-culture: cytokine secretion in cell-free supernatants (ELISA); type: cell-based; conditions: 18 hours
Text: as §1, §2, §3

[3] = APCs with CFSE-labeled tumor cells, various concentrations, flow cytometry

B1: CD20 (protein, UniProt P11836 1-297, looked up)
B-lymphocyte antigen CD20: MTTPRNSVNGTFPAEPMKGPIAMQSGPKPLFRRMSSLVGPTQSFFMRESKTLGAVQIMNGLFHIALGGLLMIPAGIYAPICVTVWYPLWGGIMYIISGSLLAATEKNSRKCLVKGKMIMNSLSLFAAISGMILSIMDILNIKISHFLKMESLNFIRAHTPYINIYNCEPANPSEKNSPSTQYCYSIQSLFLGILSVMLIFAFFQELVIAGIVENEWKRTCSRPKSNIVLLSAEEKKEQTIEIKEEVVGLTETSSQPKNEEDIEIIPIQEEEEEETETNFPEPPQDQESSPIENDSSP
- myeloid activation [1]: does not
- myeloid activation ([1]; listed as unconjugated CD20 antibody): do not
- myeloid activation as indicated by CD14 downregulation [1, 3]: does not
- myeloid activation as indicated by CD16 downregulation [1, 3]: does not
- myeloid activation as indicated by CD40 upregulation [1, 3]: does not
- myeloid activation as indicated by CD86 upregulation [1, 3]: does not
- myeloid activation as indicated by CD123 upregulation [1, 3]: does not
- myeloid activation as indicated by HLA-DR upregulation [1, 3]: does not
- cytokine secretion [2]: do not
